Laboratory results reported in the supplement of paper PMC12042874.
± gives the uncertainty stated by the source.

test: amyloid nucleation score (Sup35N fusion, yeast selection) (log enrichment); library NNK1; higher = more nucleation; inactive = no reads after selection
Outline: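 Libraries of peptides of 20 random codons fused to Sup35N were expressed in psi-negative yeast and induced 24 hours with 100 μM copper sulfate. Selection was 7 days at 30°C on medium lacking adenine and uracil, and plasmid inserts were Illumina-sequenced before and after selection. Nucleation score is the DiMSum log enrichment of output over input reads, centred on the mode score of non-aggregating sequences, and sequences with under 100 input reads were left out.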

In order of falling amyloid nucleation score:
1. SYSFWPMQLTCYFFDVGRCL  7.434 ± 0.073
2. TAGLIILINSYASGRLTGDP  6.639 ± 0.049
3. TGLSCCCMNISRNGREMVPR  6.281 ± 0.058
4. TIINLGILLYYVGFFSIDPG  5.866 ± 0.052
5. TICSSTFNFCSCFVTYLRMG  4.83 ± 0.072
6. SYCFFYDDMRTWWFYS  4.4 ± 0.11
7. TEEKSRVRLFNRRHRGISRG  3.95 ± 0.091
8. TLLNGFFATSYCGCFFGSRT  3.95 ± 0.13
9. TLFMRVGYR  3.87 ± 0.12
10. THMGWVMHYSYETTPHARPG  3.84 ± 0.14
11. SWRLK  3.35 ± 0.073
12. TCYGQAVFLTDCSGRWDIYE  3.34 ± 0.16
13. SYTFSVYLVNWDGF  2.43 ± 0.26
14. SYYSGFRMATVSHRIRWRSM  1.88 ± 0.7
15. TCRTEKTNTELMG  1.78 ± 0.6
16. TCVSYTP  1.75 ± 0.56
17. TDQVWMLVSRRFKHFRHIEV  1.38 ± 0.2
18. SWLGPRWSFWFWFFIWSSGL  1.37 ± 0.74
19. TEGFGW  1.28 ± 0.35
20. THKFLRTRTYFMSVRSVNYW  1.19 ± 0.41
21. SWCSCQV  1.16 ± 0.6
22. SYRSEGAMETLIDGRLSDLS  1.16 ± 0.76
23. TDARTR  1.15 ± 0.36
24. TGVRHATTC  1.13 ± 0.19
25. TKMHCVGGSSRTNKSLWTIY  1.08 ± 0.57
26. TLGVMEGRNSDSLTVCRVGS  1.06 ± 0.5
27. TASLLLTLLFGLPEGLLW  0.975 ± 0.3
28. TAIWTSIIDL  0.96 ± 0.42
29. SYNWMVVFVYECI  0.931 ± 0.57
30. SWRHMFYGVILGWHICSSGS  0.925 ± 0.28
31. TGYRSTYLNEVTPIRIMPHR  0.905 ± 0.4
32. TEMDDF  0.875 ± 0.54
33. TCKTCLR  0.858 ± 1.1
34. TEVWCIQLY  0.787 ± 0.46
35. SYYDSQYGLYGESVCL  0.738 ± 0.72
36. TGNGRDVLHSSALKVPNRR  0.715 ± 0.43
37. TKIHLPYCYANLVNHSVQHK  0.704 ± 0.61
38. THLLPFAGIGVCDLVRSAMG  0.668 ± 0.93
39. TKVDRLALSM  0.658 ± 0.59
40. TLDFMLIKLSERLHLRC  0.589 ± 0.3
41. TGLCDRLRSLEGAAAVR  0.514 ± 0.49
42. TKWLLP  0.504 ± 0.57
43. TGSTR  0.391 ± 0.22
44. TIALM  0.335 ± 0.33
45. TEYVTLLGLSLGFVLASLGA  0.283 ± 0.43
46. TGNHSEVTT  0.233 ± 0.32
47. THTRCLLVW  0.216 ± 0.46
48. TIFAWAKHGQSNTVSRLGGF  0.118 ± 0.44
49. TLCSSGKGRCLVAVT  0.115 ± 1
50. TLSIFVLRIGARYNMLSLIQ  0.095 ± 0.59
51. TAAGSNQSEAFFFTNIISE  0.078 ± 0.84
52. TGLWNRIEVPVDKTEAKQPV  0.076 ± 0.42
53. TAFVILLDHGGCDSRVIYEG  0.043 ± 0.69
54. TGLVLVGMSVSCVRYRCSND  0.009 ± 0.39
55. TCCVKCGCRVQRMMMCLV  -0.003 ± 0.8
56. SYARTFMDLHNGSRH  -0.013 ± 0.25
57. TKWTGVFIWSLKAD  -0.051 ± 0.84
58. SYGHLRAFFEDCSH  -0.145 ± 0.51
59. TKTTVHCFSSMIQYCAAPTL  -0.158 ± 0.73
60. TKGYLWPRKQTAFVWIAMCG  -0.187 ± 0.27
61. TFMAARQWLGPNYDGGQGLK  -0.2 ± 1
62. THARMKFLWFARF  -0.282 ± 0.83
63. TIAGHYYLWS  -0.291 ± 0.78
64. TEDAQRGD  -0.302 ± 0.5
65. TCYLSDSLASY  -0.328 ± 0.54
66. TKLTSVYMK  -0.355 ± 0.62
67. TCEESEDDGGIMAVPDWM  -0.42 ± 0.57
68. SWYGVYPFEIGFESGLESTL  -0.429 ± 0.41
69. TIQMFAVSTCCFFRFTLHWN  -0.598 ± 0.56
70. TCIISTDGCMQAGHFVGDRR  -0.69 ± 0.54
71. TAILLNVFKCSIFWVALK  -0.691 ± 0.72
72. TFIYSRECRRTSVWQPFNNR  -0.704 ± 0.65
73. TFGPTHLGLVKYVEIDYHVA  -0.725 ± 0.9
74. TFVACDLKCPRCAWVGDFVM  -0.912 ± 0.5
75. TLEFLMPSYLFHLGRMVNLS  -0.927 ± 1.4
76. TGFKI  -0.973 ± 0.97
77. TCRESMRYVDNGLAFYSWFY  -0.983 ± 0.56
78. TDCHALRMWIFAGFWWHNFS  -1.04 ± 0.84
79. THGVSWQLVRDAILNGGPKR  -1.12 ± 1.3
80. TFADNF  -1.28 ± 1.1
81. TLMGQWGWFSSVAYNNAGIV  -1.36 ± 0.86
82. TCRKTTMQRRSTHNLVKCDE  -1.47 ± 2.7
83. TGYVIGWVSWTSWWEMGLYR  -2.43 ± 2.4

For SYFVIFSGTM, the amyloid nucleation score was “inactive”.
For TCIVSWWYSQDGSWEMCLQR, the amyloid nucleation score was “inactive”.
For THYIFLVYLWVYPGTDGWQR, the amyloid nucleation score was “inactive”.
